According to paper PMC4346194:

What was measured:
Experiment in all cases: pull-down
[1] = biological target: GST-tagged IBB1-importin α3 (mouse | human) (UniProt P52293)
[2] = biological target: GST-tagged IBB3-importin α1 (human | mouse) (UniProt O00629)
[3] = biological target: GST-tagged ΔIBB-importin α3 (human) (UniProt O00629)
[4] = biological target: GST-tagged FL-importin α1 (mouse) (UniProt P52293)
[5] = biological target: GST-tagged FL-importin α7 (human) (UniProt O60684)
[6] = biological target: GST-tagged ΔIBB-importin α1 (mouse) (UniProt P52293)
[7] = biological target: GST-tagged ΔIBB-importin α7 (human) (UniProt O60684)
GST-tagged ΔIBB-importin α7 (human), sequence (O60684 59-536, stated change not applied): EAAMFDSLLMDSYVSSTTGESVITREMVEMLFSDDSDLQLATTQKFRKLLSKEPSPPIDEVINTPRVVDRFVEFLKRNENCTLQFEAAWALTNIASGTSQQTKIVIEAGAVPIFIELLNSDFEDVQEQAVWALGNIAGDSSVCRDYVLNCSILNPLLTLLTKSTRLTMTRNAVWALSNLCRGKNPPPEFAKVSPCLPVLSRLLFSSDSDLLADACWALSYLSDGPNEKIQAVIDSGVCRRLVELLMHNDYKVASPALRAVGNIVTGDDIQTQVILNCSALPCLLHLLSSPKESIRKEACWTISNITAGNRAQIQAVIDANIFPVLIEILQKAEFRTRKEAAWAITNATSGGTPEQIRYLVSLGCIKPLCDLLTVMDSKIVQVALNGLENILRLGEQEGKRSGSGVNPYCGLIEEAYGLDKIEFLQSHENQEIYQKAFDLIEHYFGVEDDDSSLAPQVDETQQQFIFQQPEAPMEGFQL

[8] = biological target: GST-tagged FL-importin α3 (human) (UniProt O00629)
GST-tagged FL-importin α3 (human), sequence (O00629 whole entry): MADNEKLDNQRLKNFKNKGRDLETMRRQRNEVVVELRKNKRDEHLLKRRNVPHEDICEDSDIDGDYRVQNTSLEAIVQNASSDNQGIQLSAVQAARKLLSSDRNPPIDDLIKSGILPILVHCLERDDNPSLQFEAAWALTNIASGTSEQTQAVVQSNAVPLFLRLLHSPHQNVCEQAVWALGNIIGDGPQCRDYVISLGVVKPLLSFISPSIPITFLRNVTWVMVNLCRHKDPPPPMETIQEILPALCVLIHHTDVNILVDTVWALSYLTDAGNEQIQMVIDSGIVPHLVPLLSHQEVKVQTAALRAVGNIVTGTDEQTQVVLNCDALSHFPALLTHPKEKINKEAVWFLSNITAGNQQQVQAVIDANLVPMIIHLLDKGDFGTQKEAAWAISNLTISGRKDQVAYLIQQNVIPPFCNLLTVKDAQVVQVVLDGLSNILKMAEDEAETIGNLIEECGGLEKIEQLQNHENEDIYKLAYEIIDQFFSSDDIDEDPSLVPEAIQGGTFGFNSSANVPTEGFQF

MBP-tagged PB2-biNLS (res. 738-759), sequence (P31345 738-759 limits assumed): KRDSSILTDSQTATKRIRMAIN

| Substance | percent of importin α bound to cargo [1] | percent of importin α bound to cargo [2] | percent of importin α bound to cargo [3] | percent of importin α bound to cargo [4] | percent of importin α bound to cargo [5] | percent of importin α bound to cargo [6] | percent of importin α bound to cargo [7] | percent of importin α bound to cargo [8] |
| --- | --- | --- | --- | --- | --- | --- | --- | --- |
| MBP-tagged nucleoplasmin NLS (NP-NLS, res. 155-170) (from UniProt P05221 155-170) (peptide) | 12% | 57% | 45% | – | – | – | – | – |
| MBP-tagged PB2-NLD (res. 678-759) (from UniProt P31345 678-759) (domain or fragment) | – | 70% | 100% | 32% | 62% | 100% | 100% | – |
| MBP-tagged PB2-biNLS (res. 738-759) (from UniProt P31345 738-759) (peptide) | – | – | 27% | 7% | 21% | 51% | 81% | 7% |
